Measurements from patent US8075919B2, “Methods for fabrication, uses and compositions of small spherical particles prepared by controlled phase separation” (Baxter International Inc., priority 2003, dated 2011).

Experiments:
DNA-Methyl Green = settings: listed value for the starting material; cited from earlier work
[1] = biological target: porcine pancreatic elastase (PPE) (Sus scrofa, UniProt P00772); experiment: Inhibition of porcine pancreatic elastase by rAAT (specific activity); assay type: biochemical
porcine pancreatic elastase (PPE), sequence (P00772 27-266): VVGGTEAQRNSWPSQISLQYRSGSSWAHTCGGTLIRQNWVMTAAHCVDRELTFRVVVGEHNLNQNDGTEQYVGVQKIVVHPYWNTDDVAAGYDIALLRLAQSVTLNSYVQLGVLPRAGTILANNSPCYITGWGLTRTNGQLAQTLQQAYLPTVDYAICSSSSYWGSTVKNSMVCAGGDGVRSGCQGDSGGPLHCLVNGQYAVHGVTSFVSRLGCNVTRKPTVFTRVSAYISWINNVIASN
Description: To determine the specific activity, the rAAT small spherical particles were dissolved in 0.2M Tris-HCl pH 8.0 at room temperature. The resulting solution was analyzed by an assay which measures the capacity of rAAT to inhibit the ability of porcine pancreatic elastase (PPE) to hydrolyze synthetic peptides that contain a p-nitroanilide group at their C-terminus. The same solution of rAAT small spherical particles was then assayed for protein concentration using the Bicinchoninic Acid (BCA) assay. A control rAAT starting material solution was also analyzed in both assays. Because the activity assay was developed to determine the activity based on a concentration of 1 mg/ml protein per sample, the activity value was corrected based on the actual protein concentration as determined by BCA, giving the specific activity value:
[formula] Inhibition of Porcine Pancreatic Elastase by rAAT

Row | Substance | theoretical activity as listed (DNA-Methyl Green) [Ku/mg protein] | specific activity ([1]; scale 100-300 mg (n = 12, column)) [IU/mg] | specific activity ([1]; scale 200-300 mg (n = 8, vessel)) [IU/mg]
1 | DNase [DNase starting material] | 775 | – | –
2 | alpha-1-antitrypsin [control rAAT starting material] | – | 64.34 ± 4.95 | 65.87 ± 0.98
